A protein production outcome set (Wang et al. 2014)

Test: label from the status in PepcDB records

Sequence	protein production
MKHIHIIGIGGTFMGGIAAIAKEAGFKVSGCDAKMYPPMSTQLEALGIGVHEGFDAAQLEEFQADIYVIGNVARRGMDVVEAILNRGLPYISGPQWLAENVLHHHWVLGVAGTHGKTTTASMLAWVLEYAGLAPGFLIGGVPENFGVSARLPQTPRQDPNSKSPFFVIEADEYDTAFFDKRSKFVHYRPRTAVLNNLEFDHADIFADLGAIQTQFHHLVRTVPSEGLIVCNGQQQSLQDTLDKGCWTPVEKFGTGHGWQIGEVNADGSFDVLLDGKKAGHVAWDLMGGHNRMNALAVIAAARHAGVDVQTACEALGAFKNVKRRMEIKGTANGITVYDDFAHHPTAIETTIQGLRQRVGGARILAVLEPRSNTMKLGTMKSALPASLKEADQVFCYAGGADWDVAEALAPLGCRLRVGKDFDTFVAEIVKNARTGDHILVMSNGGFGGIHTKLLDALR	not failed
MKHLPKHLRPRWRYLAVGIETWPNASFGRRAFQREVWYAAQNLLGDTGSAETDMTVLQFHDYDGTAEAIVRTRRGQTNPARAALTCLDSVDDDDVRVRVRGISGTVRACEEKYIRGPPEFTEQRHVVFENADRSATVRPPRYDVETASDGAFVGATALDFR	failed
MKHYTVAINGLPQEFEGFTILHLTDLHAKKYGDQQDKLIRLINRQNFDMVAMTGDFIDKDNPDLEPTLELIQGLAAKPIFFVPGNHEWRYDFSIKSSLEEHGVKILDNKNAELARGDARLWIAGVDDPYLHRDKLEEALHGIADAQPKLLLAHAPNIFKPAAESGVELVLVGHTHGGQVRLPLIGAIVAPGQGLFPQYDYGHFTAGSTNMIVNGGLGESTLPLRFCSRPEIVLVKLVSAPLEHHHHHH	failed
MKIAYLGPSGSFTHNVALHAFPAADLLPFENITEVIKAYESKQVCFAIVPVENSIEGSVHETFDYLFHQAKIEAVAEIILPIKQQLMSTSADKTIETIFSHPQAIAQGKQYIRSHYPDVKIEMTASTAYAARFVAEHPEENYAAIAPYAAADEYHLSIIAKDIQEIDENYTRFWVLGDETP	failed
MKICAVVVTYNRKDLLVECLEALRRQTGPLDAIYIIDNASTDGTPHLLMEGGYIDDPDGSVKNLPDHHGRSLKIVYVRLNENTGGAGGFYKGVRRAFHDEYDWIWLMDDDVEPEEYTLEKLLKASERIPEDVSAVAPVRFFQGSLFISETKTFNFRNPLKHFTYDFITDDDLKEEYFKISAISFEGLLIKREAIERIGFPDKSLFIIADDTDYAIRLRDYGPIYMVSGARLIKKVAAEPDFNWKGFYHLRNVIYLDRKYGENILVRYLRPLRTLIIVTYQCLKYKPSGFKYLLKAFWEGYTLKRGKTVKPGEFLEHHHHHH	not failed
MKIEAASEQHLSVYRRYFRACRDEDFEYYRGLPDDADGWLLKVVQHADGEALPEGWVPCQTWFLLSDDGEIAGAARLREGETAVIQDVIGHIGFEVLPQWRGHGYGRVLLQYVQAMAPAPACGNWVLVCDADSPASVRTIEACGGQRLEDMPQPDGRV	failed
MKIEERKQYVKIEVQEGDTLWELADRIKGGKTADKHKFIEWVADKNNLPTSVIKPGDVLILPVAKQHSDQYQLAVVELEHHHHHH	not failed
MKIEEVRFGLVKIDGKEFDHDIVIYPSGRIERRMKEISKKKHGTSHKLDPEELEKYLVEDFDVLLVGTGIYGMLSLLPESKKLVEDKEVIEKPTKEALKLLEELWGKKRILAIIHVTC	not failed
MKIELLLLFLVFAWDGYFFLRYIIGLTRKYRTIQWNPTVSVIIPAYNEEENIESAIKAALSQDYPVSEVIVVDDGSEDKTYERALRMAQEDTRVKVIRIPHGGKARALNEGIKVARGEIIVTTDADSYMAKDAVRRLVERFYSPDIVGVGGQIRVVVESFLTLVQDIEHLRIAMYRRAKELEDLSLAPGPLSAFRREALDQIGGIAESIVEDYATTKLLKKVGKVVYAPKAKLFTRMPITLKELWRQRKRWFIGDLNHLEPKDYAILMLSDFIAFLDVILPLLFIVRGEFLLLGAFFGFEILTMLPPIIFEGGSIIEALSFPFILIFLAMFYLGIHIYGYLTKLNAKIFK	failed
MKIESAQIIELPKILDKRGNLSIIEEFKNIPFKIERTYWIYDVPGGESRGGHAYRENEEFIVALSGSFDVVLDDGNNKKIFSLNRSYYGLYVPKGLWREMNNFSTNSLALILSSTVYEEKDYIRDYNEFLKMKRKLEHHHHHH	failed
MKIESLDLPDEIKRFYENSGILELYPPQAEAVEKGLLEGKNLLAAIPTASGKTLLAELAMLKSVLNGGKALYIVPLRALASEKFRRFQEFSVLGMRVGISTGDYDRRDEGLGINDIIVATSEKTDSLLRNETAWMQEISVVVADEVHLIDSPDRGPTLEITLSKLRRMNPSCQVLALSATVGNADELAAWLDAELVLSEWRPTDLMEGVFYNGIFYCKDKEKPVGQPTKDEAVNLVLDTIKEGGQCLVFESSRKNCMGFAKKAVSAVKKTLSNEDRETLAGIADEIIENSETDVSSVLATCVRSGTAFHHAGLTTPLRELVENGFREGRIKIISSTPTLAAGLNLPARRVIIRSYRRYSSDSGMQPIPVLEYKQMAGRAGRPRLDPYGEAVLLAKSYEEFVFLFEKYIEAGAEDIWSKLGTENALRTHILSTISNGFARTREELMDFLEATFFAFQYSNFGLSAVVDECLDFLRREGMLEKDPDALVSTVFGKLVSRLYIDPLSAALIAKGLREAGTLTELTLLHLICSTPDMRLMYMRSQDYQEVNDYVMAHAGEFSKVPNPFNIAEYEWFLGEVKTSLLLMDWIHEKPENEICLKFGIGEGDIHATADIAEWIMHVTAQLAGLLDLKGAKEASELEKRIRYGAAPELMDLLDIRSVGRVRARKLYEAGFKSTAELAAASPEHIAVLVGPKITERIFKQIGRREAVSEFSDIEPLEKGSSDGQRTISDY	failed
MKIFIVGSTGRVGKSLLKSLSTTDYQIYAGARKVEQVPQYNNVKAVHFDVDWTPEEMAKQLHGIDAIINVSGSGGKSLLKVDLYGAVKLMQAAEKAEVKRFILLSTIFSLQPEKWIGAGFDALKDYYIAKHFADLYLTKETNLDYTIIQPGALTEEEATGLIDINDEVSASNTIGDVADTIKELVMTDHSIGKVISMHNGKTAIKEALESLLEHHHHHH	not failed
MKIGIIGAGFVARAIAKLALQNGHQVMLSNSRDPQSLFSLRPMIGCDIGTATQAALFGDIIVIAVPFTAIDKLPEQALQGKSVIDAVNYYTERDGKVAALDTRSTTTSELLAGYLPGAKITKAFNAITMTQLERDGLPAGSAHRRALPLAGDHEQEKTIVAELYDAFGFDVVDAGKLSEGWRFERNMPSYCVRMTKAELTTALALSSRLEHHHHHH	not failed
MKIGIIGVGKMASAIIKGLKQTPHELIISGSSLERSKEIAEQLALPYAMSHQDLIDQVDLVILGIKPQLFETVLKPLHFKQPIISMAAGISLQRLATFVGQDLPLLRIMPNMNAQILQSSTALTGNALVSQELQARVRDLTDSFGSTFDISEKDFDTFTALAGSSPAYIYLFIEALAKAGVKNGIPKAKALEIVTQTVLASASNLKTSSQSPHDFIDAICSPGGTTIAGLMELERLGLTATVSSAIDKTIDKAKSL	not failed
MKIGVLGLQGAVREHVRAIEACGAEAVIVKKSEQLEGLDGLVLPGGESTTMRRLIDRYGLMEPLKQFAAAGKPMFGTCAGLILLAKRIVGYDEPHLGLMDITVERNSFGRQRESFEAELSIKGVGDGFVGVFIRAPHIVEAGDGVDVLATYNDRIVAARQGQFLGCSFHPELTDDHRLMQYFLNMVKEAKMASSLK	not failed
MKIIELPIEFEFNGQKQCIYPSLIILHNELTLVDTGYPSFLPLIENAILKHGYEMKNLKNIIITHYDDDHIGAVYDFKVKYPNINVIASEIESNYINGDIKSERLVQAEEMLERMPNEEKEFGKWFIQQLKNIKHISVDEKVHDGQMILNNECQVVATPGHTSGHISLYFPNLDCVITGDAAVQENRELVIANPNFCLDIEKAKQSLNRIKSFKAAQYYCYHGGKLTV	failed
MKIIRTRQRPFMVIVDVVLTVLAWVGLLYLLVRGLIPLLDSHEGPRIEAGMLDALTTLQFYAWVAVLNAVLLISWARYRQRRNKSYPPRLPAPVVDDKRLSETFKLNDATFAQMRQPGTMIVHNDEEGGISHVTTQFYRILPEDQQHPPLRVEPPPRVIHLRSEGDEGKKTGED	failed
MKIKACIFDMDGTLVNSIMDIAFSMNSALSNLGYSKIELSKFNALVGRGFNKFVIDTLKLLSLEHDNPNLQEKLYKEFVKEYNKNLSFQTKPYENIKPLLETMNKLNIPIGILSNKNHEELINLVKNIFGNILFFEIRGYSKNFPPKPDPENALDMILELNAQKEEIAYIGDSDVDMLTALNAGFMPIGVSWGFRSVQELKESGAKHIIHNPLELLDLIK	failed
MKIKAVGAYSAKQPLEPMDITRREPGPNDVKIEIAYCGVCHSDLHQVRSEWAGTVYPCVPGHEIVGRVVAVGDQVEKYAPGDLVGVGCIVDSCKHCEECEDGLENYCDHMTGTYNSPTPDEPGHTLGGYSQQIVVHERYVLRIRHPQEQLAAVAPLLCAGITTYSPLRHWQAGPGKKVGVVGIGGLGHMGIKLAHAMGAHVVAFTTSEAKREAAKALGADEVVNSRNADEMAAHLKSFDFILNTVAAPHNLDDFTTLLKRDGTMTLVGAPATPHKSPEVFNLIMKRRAIAGSMIGGIPETQEMLDFCAEHGIVADIEMIRADQINEAYERMLRGDVKYRFVIDNRTLTD	not failed
MKIKTSYLIYAVIATVFAGLSMVTDIFEKGNFEAIFSNLGMIIGLSILAYILITMAKSFIDLVINELKN	failed
MKILFIKLSALGDVLASTPLFASTKAEHPDWFVGHVVARPYADATRNNAHVDAQFVVDSPLSKGLAEKIGVAVGIWRYVLRERYDIAVVLHRSFVLQLICRLALVKKVVGYEGPFSFILNHSIPFSMRGNRSNLELRLLKSAGIIRDEKKKLRFDIDFGNVDPSRLRALPDAFIAVNAGGGNADAHAANKLWPAEHYGALIKQLPLPAVMLGHGAADERIRDRVAATGATFVDLIGKTNLDETAVVLRRSSLYVGNDSALLYLAASLGVTTIGIYGPTDPAAFSPLGANNLWLSGKTSCAPCYSSFDGIGGRMYTCADNICMKAVTVESVSERIHAALHQDQNLQVAGPDVVGSGQGGAASEAGDRARAHARAGHQAVGDGGFAVPVSRRPPVGARVSGRDD	failed
MKILKKIFQVIVKIINHCVPVDSRSLYFIPHPNCRTDKYDIINYSSDNVLVLLNYLLKKDSAEYYKIYVEIYDSSRISEYQEYIYGINPNIRCTFLCACVGRFFFNKVSFKDMLYAFFCFCRASKCFTATFYYDFSFKKRSQQIICLGYYTPFKDDYHMGDHSYDKFRNTTCNSFDYSIATSCLSARIISIDCGISYDKFKVLGFPRNDLLISKNNCNVIKREISKFAGYDVTKYIVYTPTFRDYETVTEGNLRSILGYVDCDLLKLSKILLKFNAALILKLHPLQNKTVLKKDLPKGILVFEQTYKYGLYDLLSFSDGMITDYTSTYFDFLLVNKPVIFNFYDIEEYRRVRGFSFEPIEFFCAGDIVYNYNELIDAVMGLLAGKDIHAEHRRHISLLMNQFQDDNSTKRICDIFLNEILEHHHHHH	failed
MKILVDENMPYARELFSRLGEVKAVPGRPIPVEELNHADALMVRSVTKVNESLLSGTPINFVGTATAGTDHVDEAWLKQAGIGFSAAPGCNAIAVVEYVFSALLMLAERDGFSLRDRTIGIVGVGNVGSRLQTRLEALGIRTLLCDPPRAARGDEGDFRTLDELVQEADVLTFHTPLYKDGPYKTLHLADETLIRRLKPGAILINACRGPVVDNAALLARLNAGQPLSVVLDVWEGEPDLNVALLEAVDIGTSHIAGYTLEGKARGTTQVFEAYSAFIGREQRVALETLLPAPEFGRITLHGPLDQPTLKRLAHLVYDVRRDDAPLRKVAGIPGEFDKLRKNYLERREWSSLYVMCDDETAAALLCKLGFNAVHHPAH	not failed
